{"source": "patent US20260159603A1", "about": "(BEAM THERAPEUTICS, published 2026)", "binders": {"B1": {"name": "ABTx317 (VHH)", "VHH": "QVQLVESGGGLVQAGASLRLSCAASGRTTYNMGWFRHAPGKDREFVAAIDLYGRATRYANSVKGRFTISRDNAKNTVYLQMNSLKPEDTAVYYCAADTSLPLGVLTKSQRMYGAWGQGTQVTVSS", "notes": "VHH in periplasmic extract of the phage display clone; also called clone 280; not shown: c-myc tag of the phagemid construct (detected with anti-c-myc 9E10)"}, "B2": {"name": "ABTx331 (VHH)", "VHH": "B1 VHH with K107E, M111L", "notes": "VHH in periplasmic extract of the phage display clone; also called clone 225; not shown: c-myc tag of the phagemid construct (detected with anti-c-myc 9E10)"}, "B3": {"name": "ABTx315 (VHH)", "VHH": "QVQLVESGGGLVQAGGSLRLSCAASGRTFGTYTMGWFRQAPGREREFVAAISWSAGRTYYADSMKGRFTISRDNAKNTVYLQMNSLKPEDTAVYYCAADPWTSDSDYDRLTMYDYWGQGTQVTVSS", "notes": "VHH in periplasmic extract of the phage display clone; also called clone 502; not shown: c-myc tag of the phagemid construct (detected with anti-c-myc 9E10)"}, "B4": {"name": "ABTx316 (VHH)", "VHH": "QVQLVESGGGLVQAGGSLRLSCAASGGTVSSYAMGWFRQAPGKEREFVAVISWSGGRTYYADSVKGRFTISRDNAKNTVNLQMNSLKPEDTAVYYCAADPWTSDSDYERLTMYDYWGQGTQVTVSS", "notes": "VHH in periplasmic extract of the phage display clone; also called clone 525; not shown: c-myc tag of the phagemid construct (detected with anti-c-myc 9E10)"}, "B5": {"name": "ABTx330 (VHH)", "VHH": "EVQLVESGGGLVQPGGSLRLSCAASGFPFSSSFMSWVRQAPGKGLEWVSTIYSDGSTYYADSVKGRFTISRDNAKKTAYLQMNSLKAEDTAVYYCATVTGSIRGQGTQVTVSS", "notes": "VHH in periplasmic extract of the phage display clone; also called clone 563; not shown: c-myc tag of the phagemid construct (detected with anti-c-myc 9E10)"}, "B6": {"name": "ABTx320 VHH-Fc (Fc fusion)", "chain": "QVQLVESGGGLVQAGGSLRLSCAASGPAFSSSGMGWFRQAPGKAREFVASMDWTGGSTYYGDSVKGRFTVSRDNAKMTVHLQMNSLRPEDTAVYYCARGTSGVAAVNLRGFFSWGPGTQVTVSS", "notes": "VHH as Fc fusion protein; order of the parts and the Fc are not described; also called anti-CD5 VHH-Fc; not shown: Fc (detected with anti-Human Fc)"}, "B7": {"name": "ABTx325 VHH-Fc (Fc fusion)", "chain": "QVQLVESGGGLVQPGGSLRLSCAASGSDASTNNMAWYRQAPGKEREFVALIRTGGSTHVADSMKGRFTISRENAKNTVYLQMNSLKPEDTAVYYCVIWTGSPGALSDYWGQGTQVTVSS", "notes": "as for B6"}, "B8": {"name": "ABTx327 VHH-Fc (Fc fusion)", "chain": "QVQLVESGGGLVQPGGSLRLSCVASGGTFSTYGMGWFRQAPGKEREFVAVITGSGVGTQYADSVKDRFTISRENAKNTVYLQMNTLKLEDTAVYYCVSGHRPGWAVIRADAYEYWGQGTQVTVSS", "notes": "as for B6"}, "B9": {"name": "ABTx317 VHH-Fc (Fc fusion)", "chain": "B1 VHH", "notes": "as for B6"}, "B10": {"name": "ABTx331 VHH-Fc (Fc fusion)", "chain": "B1 VHH with K107E, M111L", "notes": "as for B6"}, "B11": {"name": "ABTx318 VHH-Fc (Fc fusion)", "chain": "QVQLQESGGGSVQAGGSLRLSCAASGRAFSAYAMGWFRQAPGKEREFVAAINWNGDTALRWNGFATRYADSVKGRFTISRVIAKNTVNLQMNSLKPEDTAVYYCAADTVVSGSYYLAARAEDYEYWGQGTQVTVSS", "notes": "as for B6"}, "B12": {"name": "ABTx315 VHH-Fc (Fc fusion)", "chain": "B3 VHH", "notes": "as for B6"}, "B13": {"name": "ABTx316 VHH-Fc (Fc fusion)", "chain": "B4 VHH", "notes": "as for B6"}, "B14": {"name": "ABTx323 VHH-Fc (Fc fusion)", "chain": "QVQLQESGGGLVQAGGSLRLSCATSGITSSINVIGWYRQAPGKQRELVALVNSGGQTHYADSVKGRFTISRDNAKNTVFLQMNSLKPEDTAEYYCHGRYGIDNYWGEGTQVTVSS", "notes": "as for B6"}, "B15": {"name": "ABTx321 VHH-Fc (Fc fusion)", "chain": "QLQLVESGGGLVQPGESLRLSCVVSGDIFSFVGWGWYRQAPGKQREVVAQISTGGLTNYADSVKGRFAISRDNAKRTVYLQMNSLKFEDTAVYYCNVPGHPWGQGTQVTVSS", "notes": "as for B6"}, "B16": {"name": "ABTx328 VHH-Fc (Fc fusion)", "chain": "B15 chain with L2V, V32I, V47L, S52N, N58D, A68T, V97F, P101S", "notes": "as for B6"}, "B17": {"name": "ABTx319 VHH-Fc (Fc fusion)", "chain": "QVQLVESGGGLVQPGGSLRLSCAASGFTFSMYSMSWVRQAPGKRLEWVSSISTGARDTAYADSVKGRFTISRDNADNTLYLHMNNLKPEDTAVYYCANGDLRYGPDGYDYRGQGTQVTVSS", "notes": "as for B6"}, "B18": {"name": "ABTx324 VHH-Fc (Fc fusion)", "chain": "QVQLVESGGGLVQPGGSVRLSCATSGSIFSTNVMGWYRQAPGKEREFVALIRGGGSTHYADSVKGRFIISRENAKTTVYLQMNGLKPEDTAVYYCVIWLGSPGAMSDYWGQGTQVTVSS", "notes": "as for B6"}, "B19": {"name": "ABTx329 VHH-Fc (Fc fusion)", "chain": "QLQLVESGGGLVQPGESLRLSCAASGFSFSRVGMNWYRQAPGKERELVASISSDGSRTNYAHFVKGRFTISRDNVKNMVYLQMNSLKLEDTAVYYCNVPGNSWGQGTQVTVSS", "notes": "as for B6"}, "B20": {"name": "ABTx326 VHH-Fc (Fc fusion)", "chain": "QVQLVESGGGLVQPGGSLRLSCAASGRTFINYAAGWFRQAPGKEREFVARISRSGGRTDYADSVKGRFTISRDNAKSTVYLQMNSLRPEDTAVYYCAEATVWEFTDGADQYDYWGQGTQVTVSS", "notes": "as for B6"}, "B21": {"name": "ABTx330 VHH-Fc (Fc fusion)", "chain": "B5 VHH", "notes": "as for B6"}, "B22": {"name": "ABTx322 VHH-Fc (Fc fusion)", "chain": "QLQLVESGGGLVQPGGSLRLSCAASGSDFLVDATTWFRQAPGNQREFVAIMDIGGVTEYADSVKGRFTISRDHTKNTVYLQMNSLKVEDTAVYYCNTRGLWGQGTLVTVSS", "notes": "as for B6"}}, "note": "Numbering of substitutions follows the chain as printed.", "data": [{"biological_target": "T1, human CD5 on transfected HEK293T cells (human, UniProt P06127 25-495)", "T1 construct": "whole, on cells; also called huCD5; Human CD5 Cells", "T1 sequence (looked up)": "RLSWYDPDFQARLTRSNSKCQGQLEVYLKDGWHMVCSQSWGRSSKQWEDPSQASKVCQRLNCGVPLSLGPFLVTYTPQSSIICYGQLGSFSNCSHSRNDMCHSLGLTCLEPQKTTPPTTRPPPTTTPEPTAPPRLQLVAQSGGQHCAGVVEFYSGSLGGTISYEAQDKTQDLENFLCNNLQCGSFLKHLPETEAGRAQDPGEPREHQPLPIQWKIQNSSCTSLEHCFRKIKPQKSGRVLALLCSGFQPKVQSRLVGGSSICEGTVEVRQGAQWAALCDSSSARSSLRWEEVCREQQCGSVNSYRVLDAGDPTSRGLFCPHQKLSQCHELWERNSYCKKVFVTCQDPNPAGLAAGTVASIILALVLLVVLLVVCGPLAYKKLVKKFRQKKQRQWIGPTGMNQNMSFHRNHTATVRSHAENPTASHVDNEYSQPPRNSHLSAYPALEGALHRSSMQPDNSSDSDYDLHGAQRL", "assay": "flow cytometry, periplasmic extract on transfected HEK293T cells", "units": {"percent of cells showing binding": "%"}, "values": [{"binder": "B1", "percent of cells showing binding": 82.8}, {"binder": "B2", "percent of cells showing binding": 89.2}, {"binder": "B3", "percent of cells showing binding": 86.4}, {"binder": "B4", "percent of cells showing binding": 85.8}, {"binder": "B5", "percent of cells showing binding": 78.6}]}, {"biological_target": "T2, cynomolgus CD5 on transfected HEK293T cells (cynomolgus (Table 8B); rhesus macaque …)", "T2 construct": "whole, on cells; also called Cynomolgus CD5 Cells; rhesus macaque (Macaca mulatta) CD5", "assay": "flow cytometry, periplasmic extract on transfected HEK293T cells", "units": {"percent of cells showing binding": "%"}, "values": [{"binder": "B1", "percent of cells showing binding": 79.5}, {"binder": "B2", "percent of cells showing binding": 71.8}, {"binder": "B3", "percent of cells showing binding": 79.1}, {"binder": "B4", "percent of cells showing binding": 81.7}, {"binder": "B5", "percent of cells showing binding": 72}]}, {"biological_target": "T3, biotinylated cynomolgus CD5-HIS (cynomolgus)", "T3 construct": "Loaded onto streptavidin Octet pins; also called CynoCD5; SA-Cyno CD5", "assay": "BLI (Octet), biotinylated CD5-HIS on streptavidin pins, periplasmic extract, off-rate", "units": {"koff": "s⁻¹"}, "values": [{"binder": "B1", "koff": 0.118}, {"binder": "B2", "koff": 0.0557}, {"binder": "B3", "koff": 0.000345}, {"binder": "B4", "koff": 0.0343}, {"binder": "B5", "koff": 0.0102}]}, {"biological_target": "T4, biotinylated human CD5-HIS (human, UniProt P06127 25-372, biotinylated)", "T4 construct": "Loaded onto streptavidin Octet pins; also called huCD5; SA-human CD5; not shown: HIS tag", "T4 sequence (looked up)": "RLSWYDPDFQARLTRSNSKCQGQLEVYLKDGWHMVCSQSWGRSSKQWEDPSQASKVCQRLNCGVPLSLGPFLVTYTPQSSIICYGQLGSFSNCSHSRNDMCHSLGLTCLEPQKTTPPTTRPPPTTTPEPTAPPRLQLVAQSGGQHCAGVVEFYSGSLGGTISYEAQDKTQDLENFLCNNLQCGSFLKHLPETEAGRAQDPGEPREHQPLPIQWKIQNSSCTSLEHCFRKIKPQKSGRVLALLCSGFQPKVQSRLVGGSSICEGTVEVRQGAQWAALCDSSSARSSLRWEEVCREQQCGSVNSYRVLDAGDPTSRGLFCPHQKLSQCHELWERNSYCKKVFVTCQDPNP", "assay": "BLI (Octet), biotinylated CD5-HIS on streptavidin pins, periplasmic extract, off-rate", "units": {"koff": "s⁻¹"}, "values": [{"binder": "B1", "koff": 0.0131}, {"binder": "B2", "koff": 0.0145}, {"binder": "B3", "koff": 0.000566}, {"binder": "B4", "koff": 0.0054}, {"binder": "B5", "koff": 0.00231}]}, {"biological_target": "T3, biotinylated cynomolgus CD5-HIS", "assay": "BLI (Octet), biotinylated CD5-HIS on streptavidin pins", "units": {"Kd": "nM", "koff": "s⁻¹", "kon": "M⁻¹ s⁻¹"}, "values": [{"binder": "B1", "Kd": 2.4, "koff": 0.0002, "kon": 84000}, {"binder": "B2", "Kd": 2.2, "koff": 0.00016, "kon": 71000}, {"binder": "B3", "Kd": 0.22, "koff": "5.8e-05", "kon": 260000}, {"binder": "B4", "Kd": 1.6, "koff": 0.00021, "kon": 130000}, {"binder": "B5", "Kd": 1.4, "koff": 0.00014, "kon": 110000}]}, {"biological_target": "T4, biotinylated human CD5-HIS", "assay": "BLI (Octet), biotinylated CD5-HIS on streptavidin pins", "units": {"Kd": "nM", "koff": "s⁻¹", "kon": "M⁻¹ s⁻¹"}, "values": [{"binder": "B1", "Kd": 2.1, "koff": 0.00015, "kon": 71000}, {"binder": "B2", "Kd": 1.3, "koff": 0.00012, "kon": 94000}, {"binder": "B3", "Kd": 0.4, "koff": "6.3e-05", "kon": 160000}, {"binder": "B4", "Kd": 1.4, "koff": 0.00015, "kon": 110000}, {"binder": "B5", "Kd": 0.65, "koff": "8.3e-05", "kon": 130000}]}, {"biological_target": "T4, biotinylated human CD5-HIS", "assay": "BLI; KD on human CD5 divided by KD on cynomolgus CD5", "values": [{"binder": "B1", "Hu/Cyno KD": 0.9}, {"binder": "B2", "Hu/Cyno KD": 0.6}, {"binder": "B3", "Hu/Cyno KD": 1.8}, {"binder": "B4", "Hu/Cyno KD": 0.9}, {"binder": "B5", "Hu/Cyno KD": 0.5}]}, {"biological_target": "T5, huCD5-BTN (human, UniProt P06127 25-372, limits assumed, biotinylated (BTN))", "T5 construct": "Loaded onto streptavidin biosensors; also called human CD5", "T5 sequence (looked up)": "T4 sequence (looked up)", "assay": "BLI in tandem, huCD5-BTN saturated with UCHT2 first; competitor UCHT2", "units": {"response": "Response Units"}, "values": [{"binder": "B6", "response": 0.325}, {"binder": "B7", "response": 0.396}, {"binder": "B8", "response": 0.025}, {"binder": "B9", "response": 1.24}, {"binder": "B10", "response": 0.232}, {"binder": "B11", "response": 1.15}, {"binder": "B12", "response": 0.498}, {"binder": "B13", "response": 0.394}, {"binder": "B14", "response": 0.317}, {"binder": "B15", "response": 0.0713}, {"binder": "B16", "response": 0.153}, {"binder": "B17", "response": 1.17}, {"binder": "B18", "response": 0.663}, {"binder": "B19", "response": 0.24}, {"binder": "B20", "response": 0.0571}, {"binder": "B21", "response": 0.367}, {"binder": "B22", "response": -0.137}]}]}
